Results reported in patent US20180291360.
Read-outs that look alike come from different tables or passages of the source.

T1: peptide WHWLQLKPGQPMY
T1 chain: WHWLQLKPGQPMY

T2: peptide TPAAAR
T2 chain: TPAAAR

T3: peptide KPGQPMY
T3 chain: KPGQPMY

B1: TRI035, PepN 2 (aminopeptidase type 2) from Aspergillus clavatus NRRL 1 (protein)
chain: NAPGGPGGHGRKLPVNPKTFPNEIRLKDLLHGSQKLEDFAYAYPERNRVFGGQAHLDTVNYLYRELKKTGYYDVYKQPQVHQWTRADQSLTLGGDSIQASTMTYSPSVNVTAPLSLVSKLGCAEGDYSADVKGKIALVSRGECSFAQKSVLSAKAGAVATIVYNNVDGSLAGTLGGATSELGPYSPIIGITLAAGQDLVARLQAAPTEVSLWIDSKVENRTTYNVIAQTKGGDPNNVVALGGHTDSVENGPGINDDGSGVISNLVVAKALTRYSVKNAVRFCFWTAEEFGLLGSNYYVDNLSPAELAKIRLYLNFDMIASPNYALMIYDGDGSAFNLTGPPGSAQIESLFENYYKSIKQGFVPTAFDGRSDYEGFILKGIPAGGVFTGAESLKTEEQARLFGGQAGVALDANYHAKGDNMTNLNHKAFLINSRATAFAVATYANNLSSIPPRNATVVKRESMKWTKREEPHTHGADTGCFASRVKE
B2: TRI063, leucine aminopeptidase 2 from Aspergillus oryzae RIB40 (NCBI Reference Sequence XP_001819545.1) (protein)
chain: RALVSPDEFPEDIQLEDLLEGSQQLEDFAYAYPERNRVFGGKAHDDTVNYLYEELKKTGYYDVYKQPQVHLWSNADQTLKVGDEEIEAKTMTYSPSVEVTADVAVVKNLGCSEADYPSDVEGKVALIKRGECPFGDKSVLAAKAKAAASIVYNNVAGSMAGTLGAAQSDKGPYSAIVGISLEDGQKLIKLAEAGSVSVDLWVDSKQENRTTYNVVAQTKGGDPNNVVALGGHTDSVEAGPGINDDGSGIISNLVIAKALTQYSVKNAVRFLFWTAEEFGLLGSNYYVSHLNATELNKIRLYLNFDMIASPNYALMIYDGDGSAFNQSGPAGSAQIEKLFEDYYDSIDLPHIPTQFDGRSDYEAFILNGIPSGGLFTGAEGIMSEENASRWGGQAGVAYDANYHAAGDNMTNLNHEAFLINSKATAFAVATYANDLSSIPKRNTTSSLHRRARTMRPFGKRAPKTHAHVSGSGCWHSQVEA
B3: TRI031, PepN 2 (aminopeptidase type 2) from Neosartorya fischeri NRRL 181 (protein)
chain: NGPGWDWKPPVHPKVLPQMIHLWDLMHGAQKLEDFAYAYPERNRVFGGPAHEDTVNYLYRELKKTGYYDVYKQPQVHQWTRADQALTVDGKSYVATTMTYSPSVNVTAPLAVVNNLGCVESDYPADLKGKIALVSRGECPFATKSVLSAKAGAAAALVYNNIEGSMAGTLGGPTSELGPYAPIAGISLADGQALIQMIQAGTVTANLWIDSKVENRTTYNVIAQTKGGDPNNVVALGGHTDSVEAGPGINDDGSGIISNLVVAKALTRFSVKNAVRFCFWTAEEFGLLGSSYYVNSLNATEKAKIRLYLNFDMIASPNYALMIYDGDGSAFNLTGPAGSAQIERLFEDYYKSIRKPFVPTEFNGRSDYEAFILNGIPAGGIFTGAEAIKTEEQAKLFGGQAGVALDANYHAKGDNMTNLNREAFLINSKATAFAVATYANSLDSIPSRNMSTVVKRSQLEQAKKSTPHTHTGGTGCYKDRVEQ
B4: TRI032, PepN 2 (aminopeptidase type 2) from Myceliophthora thermophila ATCC 42464 (protein)
chain: GGHGGSSGLGCDSQRPLVSSEKLQSLIKKEDLLAGSQELQDIATAHGGHRAFGSSGHNATVDFLYYTLKALDYYNVTKQPFKEIFSSGTGSLTVDGEDIEAETLTYTPSGSATDKPVVVVANVGCDAADYPAEVAGNIALIKRGTCTFSQKSVNAKAAGAVAAIIYNNAEGKLSGTLGQPFLDYAPVLGITLEAGEALLAKLAGGPVTATLQIDALVEERVTYNVIAETKEGDHSNVLVLGGHTDSVPAGPGINDDGSGTIGMLTVAKALTKFRVKNAVRFAFWSAEEYGLLGSYAYIKSINSSAAELSKIRAYLNFDMIASPNYIYGIYDGDGNAFNLTGPAGSDVIERNFENFFKRKHTPSVPTEFSGRSDYAAFIENGIPSGGLFTGAEVLKTEREAELFGGRAGVAYDVNYHQAGDTVDNLALDAFLLNTKAIADSVATYALSFDGLPRVDGKKRRWDAHRARMLKRSAGSHGHAHLHSGPCGGGASI

Tests used:
peptide TPAAAR [1] = tested on: peptide TPAAAR
peptide WHWLQLKPGQPMY = target: T1, peptide WHWLQLKPGQPMY
peptide TPAAAR [2] = target: T2, peptide TPAAAR
peptide KPGQPMY = target: T3, peptide KPGQPMY

Molecule	hydrolysis of the peptide, LC-MS label free quantification (peptide TPAAAR [1])	hydrolysis of the peptide, LC-MS label free quantification (peptide WHWLQLKPGQPMY)	hydrolysis of the peptide, LC-MS label free quantification (peptide TPAAAR [2])	hydrolysis of the peptide (X-Pro bond), LC-MS label free quantification (peptide KPGQPMY)
COROLASE LAP (fungal exo-peptidase, AB Enzymes)	show no hydrolysis of TPAAAR within 12 hr	–	–	–
B1	–	TRI031 and TRI035 can hydrolyze the peptide WHWLQLKPGQPMY (FIG. 5) to KPGQPMY (FIG. 6) and further down to QPMY (FIG. 7)	can hydrolyze the peptide TPAAAR over time to less than half the concentration within 2 hr incubation	to KPGQPMY (FIG. 6) and further down to QPMY (FIG. 7)
B2	–	we also find that their enzyme cleaves the peptide down to QPMY (FIG. 7)	show no hydrolysis of TPAAAR within 12 hr	–
B3	–	TRI031 and TRI035 can hydrolyze the peptide WHWLQLKPGQPMY (FIG. 5) to KPGQPMY (FIG. 6) and further down to QPMY (FIG. 7)	–	to KPGQPMY (FIG. 6) and further down to QPMY (FIG. 7)
B4	–	–	can hydrolyze the peptide TPAAAR over time to less than half the concentration within 2 hr incubation	–
